Source: patent publication US20220411483A1 (Chugai, published 2022)
Substitutions are numbered along the chain they refer to.

T1: FcγRIIa H type extracellular domain, His tag (human, UniProt P12318 34-217)
T1 construct: extracellular domain; also called FcgRIIaH
T1 sequence (looked up): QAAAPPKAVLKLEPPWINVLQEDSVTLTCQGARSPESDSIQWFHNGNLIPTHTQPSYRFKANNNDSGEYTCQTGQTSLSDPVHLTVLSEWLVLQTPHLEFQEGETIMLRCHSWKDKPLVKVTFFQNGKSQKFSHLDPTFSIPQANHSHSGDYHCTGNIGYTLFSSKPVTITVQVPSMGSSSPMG

T2: FcγRIIb extracellular domain, His tag (human, UniProt P31994 43-217)
T2 construct: extracellular domain; also called FcgRIIb
T2 sequence (looked up): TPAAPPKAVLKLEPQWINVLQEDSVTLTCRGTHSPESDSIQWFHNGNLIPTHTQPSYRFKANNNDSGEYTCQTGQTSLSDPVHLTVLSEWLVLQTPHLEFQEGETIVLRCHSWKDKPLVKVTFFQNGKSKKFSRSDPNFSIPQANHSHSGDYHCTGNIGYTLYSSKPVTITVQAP

T3: FcγRIIa R type extracellular domain, His tag (human, UniProt P12318 34-217)
T3 construct: extracellular domain; also called FcgRIIaR
T3 sequence (looked up): T1 sequence (looked up) with H134R

T4: FcγRIIb extracellular domain with C-terminal His tag (human, UniProt P31994 43-217)
T4 construct: extracellular domain; also called FcgRIIb; not shown: His tag at the C terminus
T4 sequence (looked up): T2 sequence (looked up)

T5: FcγRIIa R type extracellular domain with C-terminal His tag (human, UniProt P12318 34-217)
T5 construct: extracellular domain; also called FcgRIIaR; not shown: His tag at the C terminus
T5 sequence (looked up): T1 sequence (looked up) with H134R

B1: IL6R-P591/IL6R-L (antibody, human IgG1, kappa)
heavy: QVQLQESGPGLVKPSETLSLTCAVSGHSISHDHAWSWVRQPPGEGLEWIGFISYSGITNYNPSLQGRVTISRDNSKNTLYLQMNSLRAEDTAVYYCARSLARTTAMDYWGEGTLVTVSSASTKGPSVFPLAPSSKSTSGGTAALGCLVKDYFPEPVTVSWNSGALTSGVHTFPAVLQSSGLYSLSSVVTVPSSSLGTQTYICNVNHKPSNTKVDKKVEPKSCDKTHTCPPCPAPELLGGDSVMLFPPKPKDTLMISRTPEVTCVVVDVSHEDPEVKFNWYVDGVEVHNAKTKPREEQENSTYRVVSVLTVLHQDWLNGKEYKCKVSNKALPAPIEKTISKAKGQPREPQVYTLPPSRDELTKNQVSLTCLVKGFYPSDIAVEWESNGQPENNYKTTPPVLDSDGSFFLYSKLTVDKSRWQQGNVFSCSVMHEALHNHYTQKSLSLSP
light: not shown
B2: IL6R-P605/IL6R-L (antibody, human IgG1, kappa)
heavy: B1 heavy with M243F, E298D, S300A
light: not shown
B3: IL6R-P656/IL6R-L (antibody, human IgG1, kappa)
heavy: B1 heavy with A332H
light: not shown
B4: IL6R-P602/IL6R-L (antibody, human IgG1, kappa)
heavy: B1 heavy with Q297V
light: not shown
B5: IL6R-P655/IL6R-L (antibody, human IgG1, kappa)
heavy: B1 heavy with S326H
light: not shown
B6: IL6R-P653/IL6R-L (antibody, human IgG1, kappa)
heavy: B1 heavy with H270P
light: not shown
B7: IL6R-P603/IL6R-L (antibody, human IgG1, kappa)
heavy: B1 heavy with V325I
light: not shown
B8: IL6R-P654/IL6R-L (antibody, human IgG1, kappa)
heavy: B1 heavy with S326N
light: not shown
B9: IL6R-BP549/IL6R-L (antibody, human IgG1, kappa, name in EU numbering)
heavy: B1 heavy with G239D, M243F, S269G, H270E, P273G, E298Y, A332R, K441E
light: not shown
notes: human IgG1
B10: IL6R-BP567/IL6R-L (antibody, human IgG1, kappa, name in EU numbering)
heavy: B1 heavy with E235D, M243F, V266I, S269A, H270E, P273G, E298D, K441E
light: not shown
notes: human IgG1
B11: IL6R-BP560/IL6R-L (antibody, human IgG1, kappa, name in EU numbering)
heavy: B1 heavy with M243F, S269G, H270E, P273G, E298D, A332R, K441E
light: not shown
notes: human IgG1
B12: IL6R-BP559/IL6R-L (antibody, human IgG1, kappa, name in EU numbering)
heavy: B1 heavy with M243F, V266I, S269A, H270E, P273G, E274D, E298D, K441E
light: not shown
notes: human IgG1
B13: IL6R-BP568/IL6R-L (antibody, human IgG1, kappa, name in EU numbering)
heavy: B1 heavy with E235D, M243F, V266I, S269A, H270E, P273G, E298Y, K441E
light: not shown
notes: human IgG1
B14: IL6R-BP562/IL6R-L (antibody, human IgG1, kappa, name in EU numbering)
heavy: B1 heavy with G239D, M243F, H270D, P273G, E274D, E298D, A332R, K441E
light: not shown
notes: human IgG1
B15: IL6R-BP564/IL6R-L (antibody, human IgG1, kappa, name in EU numbering)
heavy: B1 heavy with G239D, M243F, H270E, P273G, E274D, E298D, A332R, K441E
light: not shown
notes: human IgG1
B16: IL6R-P662/IL6R-L (antibody, human IgG1, kappa)
heavy: B1 heavy with M243F, E298D, S300A, S326N
light: not shown
B17: IL6R-P663/IL6R-L (antibody, human IgG1, kappa)
heavy: B1 heavy with M243F, E298D, S300A, A332H
light: not shown

Target: T1, FcγRIIa H type extracellular domain, …
Experiment: SPR, KD ratio

Binder | Relative FcgRIIaH-binding Activity
B1 | 0.011 fold of IL6R-G1d/IL6R-L
B2 | 0.007 fold of IL6R-G1d/IL6R-L
B3 | 0.011 fold of IL6R-G1d/IL6R-L
B4 | 0.01 fold of IL6R-G1d/IL6R-L
B5 | 0.017 fold of IL6R-G1d/IL6R-L
B6 | 0.009 fold of IL6R-G1d/IL6R-L
B7 | 0.009 fold of IL6R-G1d/IL6R-L
B8 | 0.014 fold of IL6R-G1d/IL6R-L

Target: T6, FcγRIa extracellular domain, His tag (human, UniProt P12314 16-292)
T6 construct: whole entry named; also called FcgRIa
Experiment: SPR, KD ratio

T6 sequence (P12314 16-292): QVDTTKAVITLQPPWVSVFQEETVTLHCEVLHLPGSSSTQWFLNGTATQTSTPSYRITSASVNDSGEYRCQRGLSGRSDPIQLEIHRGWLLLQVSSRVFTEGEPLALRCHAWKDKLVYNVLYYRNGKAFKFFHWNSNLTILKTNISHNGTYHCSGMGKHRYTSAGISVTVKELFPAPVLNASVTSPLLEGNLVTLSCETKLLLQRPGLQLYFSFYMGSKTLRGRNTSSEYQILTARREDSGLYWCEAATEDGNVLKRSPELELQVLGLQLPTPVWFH

Binder | Relative FcgRIa-binding Activity
B1 | 0.0138 fold of IL6R-G1d/IL6R-L
B2 | 0.0384 fold of IL6R-G1d/IL6R-L
B3 | 0.0118 fold of IL6R-G1d/IL6R-L
B4 | 0.0174 fold of IL6R-G1d/IL6R-L
B5 | 0.0183 fold of IL6R-G1d/IL6R-L
B6 | 0.0183 fold of IL6R-G1d/IL6R-L
B7 | 0.015 fold of IL6R-G1d/IL6R-L
B8 | 0.0206 fold of IL6R-G1d/IL6R-L

Target: T7, FcγRIIIa V type extracellular domain, His tag (human, UniProt P08637 17-208)
T7 construct: extracellular domain; also called FcgRIIIaV
Experiment: SPR, KD ratio

T7 sequence (P08637 17-208 F176V): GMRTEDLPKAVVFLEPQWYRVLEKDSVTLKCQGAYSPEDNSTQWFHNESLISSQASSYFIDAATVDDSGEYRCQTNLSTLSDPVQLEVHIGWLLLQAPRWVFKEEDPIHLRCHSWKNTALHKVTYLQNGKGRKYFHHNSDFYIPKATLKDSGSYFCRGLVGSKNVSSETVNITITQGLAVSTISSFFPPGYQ

Binder | Relative FcgRIIIaV-binding Activity
B1 | 0.008 fold of IL6R-G1d/IL6R-L
B2 | 0.008 fold of IL6R-G1d/IL6R-L
B3 | 0.007 fold of IL6R-G1d/IL6R-L
B4 | 0.006 fold of IL6R-G1d/IL6R-L
B5 | 0.007 fold of IL6R-G1d/IL6R-L
B6 | 0.007 fold of IL6R-G1d/IL6R-L
B7 | 0.004 fold of IL6R-G1d/IL6R-L
B8 | 0.007 fold of IL6R-G1d/IL6R-L

Target: T2, FcγRIIb extracellular domain, His tag
Experiment: SPR, KD ratio

Binder | Relative FcgRIIb-binding Activity
B1 | 1.65 fold of IL6R-G1d/IL6R-L
B2 | 0.977 fold of IL6R-G1d/IL6R-L
B3 | 2.68 fold of IL6R-G1d/IL6R-L
B4 | 2.13 fold of IL6R-G1d/IL6R-L
B5 | 1.89 fold of IL6R-G1d/IL6R-L
B6 | 1.46 fold of IL6R-G1d/IL6R-L
B7 | 1.9 fold of IL6R-G1d/IL6R-L
B8 | 2.02 fold of IL6R-G1d/IL6R-L

Target: T3, FcγRIIa R type extracellular domain, …
Experiment: SPR, KD ratio

Binder | Relative FcgRIIaR-binding Activity
B1 | 0.034 fold of IL6R-G1d/IL6R-L
B2 | 0.021 fold of IL6R-G1d/IL6R-L
B3 | 0.032 fold of IL6R-G1d/IL6R-L
B4 | 0.028 fold of IL6R-G1d/IL6R-L
B5 | 0.03 fold of IL6R-G1d/IL6R-L
B6 | 0.024 fold of IL6R-G1d/IL6R-L
B7 | 0.026 fold of IL6R-G1d/IL6R-L
B8 | 0.032 fold of IL6R-G1d/IL6R-L

Target: T4, FcγRIIb extracellular domain with …
Experiment: SPR, antibody captured, FcgR analyte

Binder | Kd [nM]
B9 | 16
B10 | 14
B11 | 180
B12 | 28
B13 | 15
B14 | 24
B15 | 22

Target: T8, FcγRIa extracellular domain with C-terminal His tag (human, UniProt P12314 16-292)
T8 construct: also called FcgRIa; CD64; not shown: His tag at the C terminus
Experiment: SPR, antibody captured, FcgR analyte

T8 sequence (P12314 16-292): as the sequence (P12314 16-292) above

Binder | Kd [nM]
B9 | 18
B10 | 0.21
B11 | 5.6
B12 | 1.1
B13 | 0.19
B14 | 25
B15 | 31

Target: T5, FcγRIIa R type extracellular domain …
Experiment: SPR, antibody captured, FcgR analyte

Binder | Kd [nM]
B9 | 570
B10 | 890
B11 | 4200
B12 | 1600
B13 | 680
B14 | 680
B15 | 580

Target: T4, FcγRIIb extracellular domain with …
Experiment: SPR; KD of IL6R-B3/IL6R-L divided by KD of variant

Binder | Relative FcgRIIb-binding Activity
B9 | 196
B10 | 224
B11 | 16.8
B12 | 110
B13 | 210
B14 | 131
B15 | 140

Target: T5, FcγRIIa R type extracellular domain …
Experiment: SPR; KD of IL6R-B3/IL6R-L divided by KD of variant

Binder | Relative FcgRIIaR-binding Activity
B9 | 1.9
B10 | 1.2
B11 | 0.3
B12 | 0.7
B13 | 1.6
B14 | 1.6
B15 | 1.9

Target: T2, FcγRIIb extracellular domain, His tag
Experiment: SPR, bound amount per captured antibody

Binder | Relative FcgRIIb-binding Activity
B1 | 131 % of IL6R-G1d/IL6R-L
B2 | 82 % of IL6R-G1d/IL6R-L
B3 | 138 % of IL6R-G1d/IL6R-L
B4 | 112 % of IL6R-G1d/IL6R-L
B16 | 73.3 % of IL6R-G1d/IL6R-L
B5 | 127 % of IL6R-G1d/IL6R-L
B6 | 116 % of IL6R-G1d/IL6R-L
B17 | 79.7 % of IL6R-G1d/IL6R-L
B7 | 130 % of IL6R-G1d/IL6R-L
B8 | 128 % of IL6R-G1d/IL6R-L

Target: T3, FcγRIIa R type extracellular domain, …
Experiment: SPR, bound amount per captured antibody

Binder | Relative FcgRIIaR-binding Activity
B1 | 20 % of IL6R-G1d/IL6R-L
B2 | 13.5 % of IL6R-G1d/IL6R-L
B3 | 18.2 % of IL6R-G1d/IL6R-L
B4 | 18.1 % of IL6R-G1d/IL6R-L
B16 | 11.2 % of IL6R-G1d/IL6R-L
B5 | 17.1 % of IL6R-G1d/IL6R-L
B6 | 14.5 % of IL6R-G1d/IL6R-L
B17 | 10.1 % of IL6R-G1d/IL6R-L
B7 | 16.9 % of IL6R-G1d/IL6R-L
B8 | 18.2 % of IL6R-G1d/IL6R-L
